Patent US11160886B2, “Method for labeling of sensitive and thermosensitive targeting biomolecules with technetium based compounds” (BRACCO IMAGING SPA, priority 2016, dated 2021)

Tests used:
[1] = Biodistribution in healthy rats; format: in vivo, Sprague-Dawley rats; conditions: for Biodistribution: Blood / Biodistribution: Heart / Biodistribution: Intestine / Biodistribution: Kidneys / Biodistribution: Liver / Biodistribution: Lungs / Biodistribution: Muscle / Biodistribution: Spleen / Biodistribution: Stomach / Biodistribution: Urine: healthy rats
Protocol: Before injection, ^99mTc complexes were purified using a reversed-phase C18 Sep-Pack cartridge to remove the excess of unlabeled ligands. After purification, the activity recovered was further diluted with PBS to obtain a final solution that is <0.5% in EtOH content. The RCP and the stability of the purified complexes were evaluated prior to in vivo administration and for the succeeding 18 h.
Biodistribution in healthy rats. Biodistribution in healthy rats was performed on complex 1, complex 2 and complex 9 in order to evaluate their pharmacokinetic profile and elimination pathways as well as their resistance to in vivo metabolism. Female Sprague-Dawley rats weighing 180-200 g were anesthetized with an intramuscular injection of a mixture of Zoletil (40 mg/kg) and xylazine (2 mg/kg). A jugular vein was surgically exposed and 100 μl (300-370 kBq) of the solution containing the selected [^99mTc(N)(PNP3OH)]-compound was injected. The rats (n=3) were scarified by cervical dislocation at different times after injection. The blood was withdrawn from the heart with a syringe immediately after death and quantified. Organs were excised, rinsed in saline, weighed, and the activity was counted in a Nal well counter.

[2] = Sera and homogenates stability; format: in vitro ADME, human and rat; conditions: 37° C.
Protocol: Sera and Homogenates Stability.
The in vitro stability of complex 1, complex 2, complex 9 and complex 11 was evaluated by monitoring the RCP at different time points using the following procedures. In a propylene test tube 50 μl of purified [^99mTc(N)(PNP3OH)]-compound were added to: a) 450 μl of human serum, b) 450 μl of rat serum, c) 450 μl of homogenate of rat liver and d) 450 μl of homogenate of rat kidneys. The resulting mixture was incubated at 37° C. for 4 h.
The sample was loaded onto a cartridge, preconditioned with MeOH (1 ml) and equilibrated with water (1 ml), and rinsed with MeOH 5% (3 ml). The activity was eluted with a mixture of EtOH/saline 60% (1 ml). Each fraction was collected and the activity measured using a counter (Cobra II, Packard) to determinate the elution profile. 80% of the loaded activity was collected in the elution fraction. An aliquot of this solution (100 μl) was analyzed by HPLC to assess the degradation of the ^99mTc(N)-complexes (FIG. 11).

[3] = system: αvβ3 positive M21 and αvβ3 negative M21L cell lines; test: Cell uptake and internalization; format: cell-based, human; conditions: M21 and M21L cells, 37° C., 90 min
Protocol: Cell Studies of complex 9 were conducted on M21 and M21L cells grown in RPMI1640 (Gibco Life Technologies). Expression of αvβ3 and of αvβ5 in the cells lines was analyzed by flow cytometry.
Cellular uptakes of the radiolabeled peptide, were assessed in suspension at 37° C. in human melanoma αvβ3 positive M21 and negative M21L cell lines. Preliminary studies were performed in order to set the experimental conditions to avoid cell damage and/or death during uptake experiments. […] Afterward, 1 ml of the cell suspension (1×10^6 cells/ml) was incubated with intermittent agitation with 10 μCi (10 μL) of ^99mTc complexes. At 90 min, the tubes were vortexed, the cells were transferred in Eppendorf microcentrifuge tube (1.5 ml) and the incubation was interrupted by centrifugation (3000 rpm for 5 min at 10° C.). […] After centrifugation (3000 rpm for 10 min at 10° C.) the supernatant was separated from the pellet, each fraction was collected, placed in a separated counting tube and the activity was determined using a counter (Cobra II, Packard) to determinate both the cell uptake and internalized fraction.
The uptake of complexes is expressed as percentage cell uptake of the total activity on 10^6 cells (% cell uptake/10^6 cells). […]

[4] = Isomeric conversion over 24 h at 37° C.; format: physicochemical
Protocol: Before the experiments for both complex 11 and complex 9, the two isomers were isolated by HPLC and their isomeric conversion was assessed over 24 h at 37° C.
In addition, a faster b vs a change was noticed. Therefore, for the radiolabeled peptide the mixture of the two isomeric forms in ratio 70/30 was directly utilized for receptor affinity studies.

## [^99mTc(N)(PNP3OH)(Cys-cRGDfK)]^+ [Complex 9]
[1]; healthy animals, within the first 60 min p.i.
  Pharmacokinetic profile: blood clearance: rapid blood clearance
[1]; 30 min
  Biodistribution: Blood: 0.46 ± 0.17 % IA/g
  Biodistribution: Heart: 0.25 ± 0.06 % IA/g
  Biodistribution: Intestine: 1.29 ± 0.13 % IA/g
  Biodistribution: Kidneys: 4.50 ± 1.59 % IA/g
  Biodistribution: Liver: 0.90 ± 0.16 % IA/g
  Biodistribution: Lungs: 0.62 ± 0.15 % IA/g
  Biodistribution: Muscle: 0.17 ± 0.01 % IA/g
  Biodistribution: Spleen: 0.41 ± 0.10 % IA/g
  Biodistribution: Stomach: 0.62 ± 0.14 % IA/g
  Biodistribution: Urine: 28.98 ± 7.22 % IA/g
[1]; 60 min
  Biodistribution: Blood: 0.25 ± 0.03 % IA/g
  Biodistribution: Heart: 0.15 ± 0.00 % IA/g
  Biodistribution: Intestine: 1.95 ± 0.97 % IA/g
  Biodistribution: Kidneys: 4.20 ± 0.35 % IA/g
  Biodistribution: Liver: 0.80 ± 0.06 % IA/g
  Biodistribution: Lungs: 0.49 ± 0.01 % IA/g
  Biodistribution: Muscle: 0.13 ± 0.01 % IA/g
  Biodistribution: Spleen: 0.39 ± 0.04 % IA/g
  Biodistribution: Stomach: 0.64 ± 0.09 % IA/g
  Biodistribution: Urine: 28.16 ± 2.49 % IA/g
[1]; 120 min
  Biodistribution: Blood: 0.16 ± 0.11 % IA/g
  Biodistribution: Heart: 0.13 ± 0.05 % IA/g
  Biodistribution: Intestine: 3.76 ± 0.17 % IA/g
  Biodistribution: Kidneys: 3.13 ± 1.69 % IA/g
  Biodistribution: Liver: 0.75 ± 0.19 % IA/g
  Biodistribution: Lungs: 0.37 ± 0.15 % IA/g
  Biodistribution: Muscle: 0.12 ± 0.05 % IA/g
  Biodistribution: Spleen: 0.34 ± 0.05 % IA/g
  Biodistribution: Stomach: 0.62 ± 0.09 % IA/g
  Biodistribution: Urine: 34.58 ± 10.09 % IA/g
[1]; 240 min
  Biodistribution: Blood: 0.12 ± 0.01 % IA/g
  Biodistribution: Heart: 0.22 ± 0.13 % IA/g
  Biodistribution: Intestine: 3.94 ± 0.91 % IA/g
  Biodistribution: Kidneys: 7.24 ± 0.55 % IA/g
  Biodistribution: Liver: 0.88 ± 0.04 % IA/g
  Biodistribution: Lungs: 0.42 ± 0.06 % IA/g
  Biodistribution: Muscle: 0.11 ± 0.00 % IA/g
  Biodistribution: Spleen: 0.47 ± 0.04 % IA/g
  Biodistribution: Stomach: 0.61 ± 0.11 % IA/g
  Biodistribution: Urine: 24.91 ± 1.00 % IA/g
[2]; human and rat sera, 3 h
  Sera stability: high sera stability
[2]; human serum, rat serum, rat kidneys homogenate, rat liver homogenate, 2 h
  In vitro stability (HPLC peaks versus control): remarkable in vitro stability
[3]
  Recognition by molecular target (cellular uptake, FIG. 10): recognized by the corresponding molecular target
[4]
  Isomeric conversion a vs b: reversible a vs b and b vs a conversion
